Measured values from US20250011363A1, “OPTIMIZED SHORTENED PEPTIDE THAT BINDS TO ACETYLCHOLINE RECEPTOR, AND USE THEREOF” (SKINMED CO., LTD., priority 2021, published 2025).

Molecular target: acetylcholine receptor
Experiment: SPR, peptide at 10 uM on immobilised AchR

Binding affinity (RU)	Binder
147	KKSRYK [6mer-1-20]
147	KRQIQR [6mer-1-13]
142	KRSFTK [6mer-1-27]
142	RKVIRK [6mer-1-24]
121	KKWVLR [6mer-1-37]
153	KRSVSR [6mer-1-23]
122	RKGITK [6mer-1-41]
137	RKWYLK [6mer-1-21]
125	RRWISK [6mer-1-28]
124	KRLISR [6mer-1-29]
135	KKLIRR [6mer-1-25]
126	RKRLCK [6mer-1-22]
139	RKVYQK [6mer-1-39]
121	KRSQYK [6mer-1-40]
128	KKQICK [6mer-1-12]
136	RRGRQR [6mer-1-35]

Binding affinity (RU)	Binder
124	RKWQQK [6mer-1-36]
135	KRVQCR [6mer-1-17]
145	KKQFTR [6mer-1-18]
154	RRQVRR [6mer-1-30]
123	KRQICK [6mer-1-15]
126	RRQQTK [6mer-1-38]
121	KRLYCR [6mer-1-31]
123	KKRVLR [6mer-1-26]
135	RKWLYK [6mer-1-34]
136	KKQYCR [6mer-1-16]
135	KRSFYR [6mer-1-19]
145	RKRFLK [6mer-1-14]
139	KRQFTK [6mer-1-11]
154	KKSYCR [6mer-1-33]
121	RKGQCR [6mer-1-32]
